Source: patent US6428967 (University of Texas, dated 2002)
Values belong to the binder of their own block, whether it stands above or below them.

Key:
[1] = biological target: T1, Disabled-1 (Dab1), two-hybrid prey in pB42AD (UniProt P97318-2 1-555); test: yeast two-hybrid, LexA tail bait against B42AD-Dab1
T1 sequence (looked up): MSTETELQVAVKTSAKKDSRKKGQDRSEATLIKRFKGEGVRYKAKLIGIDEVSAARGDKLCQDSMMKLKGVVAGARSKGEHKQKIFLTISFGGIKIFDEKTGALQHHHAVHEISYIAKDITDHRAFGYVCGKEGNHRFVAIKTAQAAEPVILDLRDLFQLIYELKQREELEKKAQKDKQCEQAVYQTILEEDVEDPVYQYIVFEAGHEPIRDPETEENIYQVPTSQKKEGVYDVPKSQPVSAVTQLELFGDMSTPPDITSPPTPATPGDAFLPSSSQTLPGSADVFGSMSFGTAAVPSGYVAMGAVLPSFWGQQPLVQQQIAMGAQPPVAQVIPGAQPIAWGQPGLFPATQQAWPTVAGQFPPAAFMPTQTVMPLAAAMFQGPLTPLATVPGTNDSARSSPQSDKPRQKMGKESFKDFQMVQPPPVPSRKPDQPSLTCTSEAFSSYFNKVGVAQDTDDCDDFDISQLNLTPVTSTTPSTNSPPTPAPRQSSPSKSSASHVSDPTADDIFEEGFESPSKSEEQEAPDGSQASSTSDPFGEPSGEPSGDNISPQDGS
Procedure: All LDL receptor family cytoplasmic tail LexA fusion proteins were constructed using the pLexA vector ([…] system, CLONTECH). […] PCR products were subcloned into the EcoRI and NcoI sites of pLexA for the Megalin and VLDL Receptor, and into EcoRI and BarnHI sites for the other receptors. […] All constructs were sequenced after cloning, and all bait vectors were tested for self-activation. Bait and prey vectors were cotransfected into yeast cells (leucine auxotrophic strain EGY48) using the LiAc method as described in the […] manual (CLONTECH). The two-hybrid assay used two reporters (LEU2 and lacZ) under the control of LexA operators. Cells were spread on selective plates (His-;Leu-;Trp-) and grown for 3 days. Single clones were grown on selective plates in patches and harvested after 2–3 days. To recover DNA from yeast, cells were resuspended in 50 μl STES (0.5M NaCl, 0.2M Tris-HCl pH 7.6, 0.01M EDTA, 1% SDS). Glass beads were added and the cells vortexed vigorously. After addition of 20 μl H2O and 60 μl phenol/chloroform cells were vortexed for 1 more minute and centrifuged (14,000×g, 5 min). The aqueous phase was collected and the DNA was precipitated with EtOH. DNA from positive clones was retransformed into DH5α and checked by DNA sequencing. Yeast mating was performed after transformation of LexA plasmids into the yeast strain YM4271 following the instructions in the […] manual (CLONTECH).
(§1) The ApoER2 tail was tested with (+) and without (−) its alternatively spliced insert. For Megalin and for LRP the complete tails and parts thereof containing a single NPxY motif were tested separately.

[2] = biological target: T2, JIP-1 (mouse, UniProt Q9WVI9 1-707); test: yeast two-hybrid, LexA tail bait against prey
T2 construct: Yeast two-hybrid prey clone; also called meg11
T2 sequence: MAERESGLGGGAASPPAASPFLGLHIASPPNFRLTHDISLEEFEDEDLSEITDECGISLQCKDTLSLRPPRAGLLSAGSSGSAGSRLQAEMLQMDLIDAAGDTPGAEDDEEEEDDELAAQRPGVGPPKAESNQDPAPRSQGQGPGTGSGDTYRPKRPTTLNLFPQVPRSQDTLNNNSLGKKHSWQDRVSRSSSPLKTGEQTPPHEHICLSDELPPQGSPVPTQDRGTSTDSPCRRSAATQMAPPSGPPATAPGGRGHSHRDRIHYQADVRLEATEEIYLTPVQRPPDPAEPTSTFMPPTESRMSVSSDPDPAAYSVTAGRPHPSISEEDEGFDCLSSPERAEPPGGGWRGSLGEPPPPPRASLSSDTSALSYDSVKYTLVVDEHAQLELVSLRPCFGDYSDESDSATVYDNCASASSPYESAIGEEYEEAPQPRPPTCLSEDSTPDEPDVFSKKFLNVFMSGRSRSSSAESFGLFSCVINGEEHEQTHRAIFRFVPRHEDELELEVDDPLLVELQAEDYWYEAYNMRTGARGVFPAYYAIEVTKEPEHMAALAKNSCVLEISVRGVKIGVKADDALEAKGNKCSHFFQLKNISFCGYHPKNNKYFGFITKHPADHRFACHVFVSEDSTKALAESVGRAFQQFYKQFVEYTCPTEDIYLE
Procedure: (§2) PCR products were subcloned into the EcoRI and NcoI sites of pLexA for the Megalin and VLDL Receptor, and into EcoRI and BarnHI sites for the other receptors. […] All constructs were sequenced after cloning, and all bait vectors were tested for self-activation. Bait and prey vectors were cotransfected into yeast cells (leucine auxotrophic strain EGY48) using the LiAc method as described in the […] manual (CLONTECH). The two-hybrid assay used two reporters (LEU2 and lacZ) under the control of LexA operators. Cells were spread on selective plates (His-;Leu-;Trp-) and grown for 3 days. Single clones were grown on selective plates in patches and harvested after 2–3 days. To recover DNA from yeast, cells were resuspended in 50 μl STES (0.5M NaCl, 0.2M Tris-HCl pH 7.6, 0.01M EDTA, 1% SDS). Glass beads were added and the cells vortexed vigorously. After addition of 20 μl H2O and 60 μl phenol/chloroform cells were vortexed for 1 more minute and centrifuged (14,000×g, 5 min). The aqueous phase was collected and the DNA was precipitated with EtOH. DNA from positive clones was retransformed into DH5α and checked by DNA sequencing. Yeast mating was performed after transformation of LexA plasmids into the yeast strain YM4271 following the instructions in the […] manual (CLONTECH).
as §1

[3] = biological target: T3, PSD-95 (mouse, UniProt Q62108 1-724); test: yeast two-hybrid, LexA tail bait against prey
T3 construct: Yeast two-hybrid prey clone; also called postsynaptic density-95; postsynaptic density protein PSD-95
T3 sequence (Q62108 whole entry): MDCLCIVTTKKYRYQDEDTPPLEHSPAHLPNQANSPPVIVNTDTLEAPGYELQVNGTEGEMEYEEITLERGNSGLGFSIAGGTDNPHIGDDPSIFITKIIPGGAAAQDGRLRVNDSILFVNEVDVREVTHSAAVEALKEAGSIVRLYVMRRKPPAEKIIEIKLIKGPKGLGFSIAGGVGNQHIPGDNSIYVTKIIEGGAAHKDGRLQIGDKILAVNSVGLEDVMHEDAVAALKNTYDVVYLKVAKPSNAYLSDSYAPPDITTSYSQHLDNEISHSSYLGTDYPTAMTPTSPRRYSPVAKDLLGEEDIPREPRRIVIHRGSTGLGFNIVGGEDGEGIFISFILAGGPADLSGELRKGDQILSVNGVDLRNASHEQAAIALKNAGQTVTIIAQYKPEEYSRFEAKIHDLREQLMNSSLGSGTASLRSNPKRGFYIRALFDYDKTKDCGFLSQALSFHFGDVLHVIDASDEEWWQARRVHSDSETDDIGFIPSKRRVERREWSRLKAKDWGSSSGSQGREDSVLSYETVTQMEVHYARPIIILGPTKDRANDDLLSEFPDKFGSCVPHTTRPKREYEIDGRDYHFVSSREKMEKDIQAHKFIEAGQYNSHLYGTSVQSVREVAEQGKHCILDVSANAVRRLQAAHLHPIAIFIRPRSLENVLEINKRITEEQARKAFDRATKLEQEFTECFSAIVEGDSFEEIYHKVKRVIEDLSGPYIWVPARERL
Procedure: as §2, §1

B4: MegB, part of the Megalin cytoplasmic tail, LexA fusion protein (MegB human) (receptor, not shown: small tags and cut ends)
chain: SARDSAVKVVQPIQVTVSENVDNKNYGSPINPSEIVPETNPTSPAADGTQVTKWNLFKRKSKQTTNFE
notes: WARNING: the listing's entry 129 (76 residues) begins like the LRP entries 130 and 132, while entry 131 (68 residues) is a stretch of the Megalin entry 127; entries 129 and 131 look exchanged, so MegB is probably entry 131
- binding result [1]: no binding

B5: ApoER2 cytoplasmic tail with its alternatively spliced insert, LexA fusion protein (ApoER2+ mouse) (receptor, not shown: large carriers)
chain: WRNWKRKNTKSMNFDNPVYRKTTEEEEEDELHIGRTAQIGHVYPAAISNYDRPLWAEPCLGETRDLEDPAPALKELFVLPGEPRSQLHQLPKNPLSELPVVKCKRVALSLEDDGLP
notes: LexA fusion bait of the two-hybrid assay; also called the ApoER2 tail containing the alternatively spliced insert
- binding result [3]: binds

The next lines start with the values.

- binding result [1]: no binding
B1: LRPA, part of the LRP cytoplasmic tail, LexA fusion protein (LRPA human) (receptor, not shown: large carriers)
chain: VQGAKGFQHQRMTNGAMNVEIGNPTYKMYEGGEPDDVG
notes: LexA fusion bait of the two-hybrid assay

- binding result [2]: no binding
- binding result [3]: no binding
B2: ApoER2 cytoplasmic tail without its alternatively spliced insert, LexA fusion protein (ApoER2- mouse) (receptor, not shown: large carriers)
chain: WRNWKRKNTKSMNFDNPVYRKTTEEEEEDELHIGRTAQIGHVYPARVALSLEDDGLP
notes: LexA fusion bait of the two-hybrid assay; also called the tail without this insert

- binding result [1]: no binding
B3: MegC, part of the Megalin cytoplasmic tail, LexA fusion protein (MegC human) (receptor, not shown: large carriers)
chain: GSPINPSEIVPETNPTSPAADGTQVTKWNLFKRKSKQTTNFENPIYAQMENEQKESVAATPPPSPSLPAKPKPPSRRDPTPTYSATEDTFKDTANLVKEDSEV
notes: as for B1
